The results in this text go back to US20260125457A1 (Janssen / Centocor, published 2026).

The target of assay [1] is T1, CD3EG-HSA-6xHis (CD3W220.002) (human, UniProt P07766 22-118; P09693 23-103).
T1 construct: also called human CD3; not shown: human serum albumin (HSA); 6xHis tag
The assay is described as follows: SPR, forced degradation: pH 5.0. A general note: In SPR one partner is held on a chip, and binding of the other changes the refractive index at the surface.

For assay [2], the target named is T2, Flag/6xhis-CALRdel52 (CALRW12.007) (human, UniProt P27797 18-417).
T2 construct: also called human CALRdel52
T2 sequence (looked up): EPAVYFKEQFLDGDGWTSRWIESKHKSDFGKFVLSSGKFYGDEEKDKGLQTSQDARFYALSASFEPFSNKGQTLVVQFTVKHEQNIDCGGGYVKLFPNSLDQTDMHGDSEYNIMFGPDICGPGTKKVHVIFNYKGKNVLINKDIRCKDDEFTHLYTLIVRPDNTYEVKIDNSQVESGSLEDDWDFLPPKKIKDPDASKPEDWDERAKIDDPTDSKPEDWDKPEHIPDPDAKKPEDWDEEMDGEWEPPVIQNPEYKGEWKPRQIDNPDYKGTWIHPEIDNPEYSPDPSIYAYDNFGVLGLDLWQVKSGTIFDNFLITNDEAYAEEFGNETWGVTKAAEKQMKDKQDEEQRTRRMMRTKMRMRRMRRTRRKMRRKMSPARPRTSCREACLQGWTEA
Nature of the assay: SPR, forced degradation: pH 5.0.

The target in assay [3] is T3, Avi/his-CalR-Ins5 (CALRW28.004) (human, UniProt P27797 18-417, limits assumed).
T3 construct: also called human CALRins5
T3 sequence (looked up): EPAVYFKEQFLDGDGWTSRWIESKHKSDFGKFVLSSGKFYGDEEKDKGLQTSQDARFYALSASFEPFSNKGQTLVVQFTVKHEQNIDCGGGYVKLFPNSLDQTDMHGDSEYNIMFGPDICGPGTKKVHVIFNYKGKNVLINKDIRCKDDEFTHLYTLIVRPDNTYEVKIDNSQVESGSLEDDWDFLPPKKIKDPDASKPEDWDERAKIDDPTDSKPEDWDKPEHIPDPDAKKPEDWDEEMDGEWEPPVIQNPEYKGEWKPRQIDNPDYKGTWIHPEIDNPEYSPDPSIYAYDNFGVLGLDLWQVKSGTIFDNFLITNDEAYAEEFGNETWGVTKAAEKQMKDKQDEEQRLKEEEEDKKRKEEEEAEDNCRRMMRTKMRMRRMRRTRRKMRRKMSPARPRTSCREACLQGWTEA
The assay is described as follows: SPR, forced degradation: Chem Ox.

Assay [4] addresses T1, CD3EG-HSA-6xHis (CD3W220.002). Nature of the assay: SPR, forced degradation: Chem Ox.
In assay [5] the target is T2, Flag/6xhis-CALRdel52 (CALRW12.007). The assay is described as follows: SPR, forced degradation: Chem Ox.
Assay [6] has as its target T3, Avi/his-CalR-Ins5 (CALRW28.004). Nature of the assay: SPR, forced degradation: pH 8.5.
The target in assay [7] is T1, CD3EG-HSA-6xHis (CD3W220.002). The assay is described as follows: SPR, forced degradation: pH 8.5.
In assay [8] the target is T2, Flag/6xhis-CALRdel52 (CALRW12.007). Nature of the assay: SPR, forced degradation: pH 8.5.

T1 sequence (P07766 other isoform, or with tags, fused parts or gaps): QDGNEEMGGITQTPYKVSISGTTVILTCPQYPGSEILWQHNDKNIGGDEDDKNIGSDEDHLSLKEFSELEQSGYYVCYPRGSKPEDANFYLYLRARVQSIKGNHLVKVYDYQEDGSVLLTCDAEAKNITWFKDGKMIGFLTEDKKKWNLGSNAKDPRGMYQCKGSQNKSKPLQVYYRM

B1: C3CRB73 CALRmut x CD3 bispecific antibody (bispecific antibody, human IgG1, kappa, L234A L235A)
heavy: EVQLLESGGGLVQPGGSLRLSCAVSGIDLSNNAISWVRQAPGKGLEYVGVIGNTGDTYYADSAKGRFTISRDSSKTTLYLQMNSLRAEDTAVYFCVRGPPSYSSSVKNIWGQGTLVTVSSASTKGPSVFPLAPSSKSTSGGTAALGCLVKDYFPEPVTVSWNSGALTSGVHTFPAVLQSSGLYSLSSVVTVPSSSLGTQTYICNVNHKPSNTKVDKKVEPKSCDKTHTCPPCPAPEAAGGPSVFLFPPKPKDTLMISRTPEVTCVVVSVSHEDPEVKFNWYVDGVEVHNAKTKPREEQYNSTYRVVSVLTVLHQDWLNGKEYKCKVSNKALPAPIEKTISKAKGQPREPQVYTLPPSREEMTKNQVSLSCAVKGFYPSDIAVEWESNGQPENNYKTTPPVLDSDGSFFLVSKLTVDKSRWQQGNVFSCSVMHEALHNRFTQKSLSLSPGK
light: DIQMTQSPSSVSASVGDRVTITCQSSQSVYNNNWLSWLQQKPGKAPKRLIYDASKLESGVPSRFSGSGSGTDFTLTISSVQPEDAATYYCAGGFTGNVYTFGGGTKVEIKRTVAAPSVFIFPPSDEQLKSGTASVVCLLNNFYPREAKVQWKVDNALQSGNSQESVTEQDSKDSTYSLSSTLTLSKADYEKHKVYACEVTHQGLSSPVTKSFNRGEC
scFv: DIQMTQSPSSLSASVGDRVTITCRARQSIGTAIHWYQQKPGCAPKLLIKYASESISGVPSRFSGSGSGTDFTLTISSLQPEDFATYYCQQSGSWPYTFGQGTKLEIKGGGSGGSGGCPPCGGSGGEVQLVESGGGLVKPGGSLRLSCAASGFTFSRYNMNWVRQAPGKGLEWVSSISTSSNYIYYADSVKGRFTFSRDNAKNSLDLQMSGLRAEDTAIYYCTRGWGPFDYWGCGTLVTVSSEPKSSDKTHTCPPCPAPEAAGGPSVFLFPPKPKDTLMISRTPEVTCVVVSVSHEDPEVKFNWYVDGVEVHNAKTKPREEQYNSTYRVVSVLTVLHQDWLNGKEYKCKVSNKALPAPIEKTISKAKGQPREPQVYTLPPSREEMTKNQVSLWCLVKGFYPSDIAVEWESNGQPENNYKTTPPVLDSDGSFFLYSKLTVDKSRWQQGNVFSCSVMHEALHNHYTQKSLSLSPGK
notes: IgG1-AAS; also called JNJ-88549968; CALRB421 Fab x CD3 spFv
As usually defined, the Kd is the free concentration of one partner at which half of the binding sites on the other are occupied at equilibrium, for simple one-to-one binding. Higher therefore signals weaker binding. As to B1, the “% Active” value turned out to be 100% in assay [1]; 103% in assay [2]; 94% in assay [3]; 95% in assay [4]; 94% in assay [5]; 97% in assay [6]. The “% Active” value was found to be 93% in assay [7] and 104% in assay [8]. For the same molecule, the Kd was 0.231 nM in assay [1]; 0.114 nM in assay [2]; 0.0408 nM in assay [3]; 0.306 nM in assay [4]; 0.07 nM in assay [5]; 0.0313 nM in assay [6]. Moreover, the results for the Kd in assay [7] and in assay [8] were 0.28 nM and 0.251 nM, respectively.
